Patent US20070243170A1 (UNIVERSITY OF CHICAGO, published 2007)

Tests used:
HveA (formerly HveM) = HveA (formerly HveM) (UniProt Q92956); experiment: cell-based or functional assay
Nectin-1 (HveC) = Nectin-1 (HveC) (UniProt Q15223); experiment: cell-based or functional assay
[1] = target: wild-type gD1-60 polypeptide (residues 1-60 of mature gD; plasmid pGG5414) (herpes simplex virus 1, UniProt P36318 26-85); experiment: co-immunoprecipitation with anti-Myc from HEK293 cells co-transfected with pGG5417+pGG5414

In the case of “IL13-gD chimeric glycoprotein D of recombinant virus R5141 (IL13 in the place of gD residues 1-32, V34S)”, the Replication of R5141 in J-HveA cells (virus yield) (HveA (formerly HveM)) is reported as 40 and the Replication of R5141 in J-Nectin cells (virus yield) (Nectin-1 (HveC)) is reported as 70.

Work on “IL13-gD chimeric glycoprotein D of recombinant virus R5144 (IL13 in the place of gD residues 1-32, V37S)” yielded a Replication of R5144 in J-HveA cells (virus yield) (HveA (formerly HveM)) of 300 and a Replication of R5144 in J-Nectin cells (virus yield) (Nectin-1 (HveC)) of 50.

B1: gD219-314 polypeptide (mature gD residues 219-314, without transmembrane and cytoplasmic domains, Myc epitope at the C-terminus; plasmid pGG5417) (other)
chain: MLPRFIPENQRTVAVYSLKIAGWHGPKAPYTSTLLPPELSETPNATQPELAPEDPEDSALLEDPVGTVVPQIPPNWHIPSIQDAATPYHPPATPNN
notes: Expressed in HEK293 cells under the CMV promoter; also called C-terminal domain of gD; R5417
B1: no binding [1].
